Among the data in patent publication US20130280282A1, “DR5 LIGAND DRUG CONJUGATES” (Daiichi Sankyo Co., Ltd., priority 2012, published 2013) are Kd and kon values, retold here.

For assay [1], the target named is T1, recombinant soluble DR5 protein (rsDR5) (human, UniProt O14763 56-183).
T1 construct: Expressed in E. coli from pET21b(+)-sDR5 and purified on Ni-NTA; also called DR5 extracellular domain protein
Put plainly: SPR, BIAcore 3000; antibody captured by anti-human IgG (Fc) on CM5 chip, rsDR5 0.3-85 nM as analyte. In general terms: Surface plasmon resonance follows binding to a sensor surface in real time, without labels.
Method: (§1) For the direct coupling of anti-human IgG (Fc), CM5 sensor chips and the reference flow cells were coated with ˜1500-2000 RU in HBS-EP+(10 mM HEPES buffer, pH 7.4, 0.15 M NaCl, 3 mM EDTA, and 0.05% Surfactant P20). […] For regeneration, 3 M MgCl₂ was loaded at flow rate of 10 μl/min for 30 sec. All sensograms were globally fitted using BIAevaluation software 3.1 (Biacore) to determine the dissociation constant KD (KD=koff/kₒₙ).

Assay [2] deals with T1, recombinant soluble DR5 protein (rsDR5). Put plainly: SPR, BIAcore 3000; conjugate captured by anti-human IgG (Fc) on CM5 chip, rsDR5 0.3-85 nM as analyte.
Method: as §1

Broadly, the Kd is the constant that tells how readily two partners part at equilibrium. By kon is commonly meant a measure of how fast the partners come together.

B1: hB273 antibody (humanized B273) (antibody, human IgG1, kappa, V domains shown)
VH: EVQLVQSGAEVKKPGASVKVSCKASGYSFIGYFMNWMKQSPGMSLEWIGRFNPYNEDTFYNQKFKGKATLTVDKSTSTAYMELSSLRSEDTAVYFCARSAYYFDSGGYFDYWGQGTLVTVSS
VL: DIVMTQSPLSLPVTPGEPASISCRSSQSLVHSNKNTYLHWYLQKPGQSPQLLIYKVSNRFSGVPDRFSGSGSGTDFTLKISRVEAEDVGVYYCSQSTHVPWTFGPGTKVEIKR
notes: Anti-DR5 antibody
B1: in assay [1], the Kd worked out at 2.6 nM and the kon came to 2.6e+06 M⁻¹ s⁻¹.

B2: hB273-vc-MMAE (antibody drug conjugate of hB273 conjugated with mc-vc-MMAE) (antibody, V domains shown)
VH: B1 VH
VL: B1 VL
modifications: mc-vc-MMAE drug-linker on cysteine thiols freed by partial TCEP reduction; average about 3.5 to 4.5 drug-linker units per antibody; positions not given
notes: Antibody drug conjugate of hB273; also called hB273-veMMAE
As to B2, the Kd in assay [2] stood at 3.2 nM.
